Test results reported in patent publication US20200079854A1 (Johns Hopkins, published 2020).

Experiments:
[1] = molecular target: T1, KRAS wt(7-16) peptide … with HLA-A3 and b2M on cells (human); assay: flow cytometry, phage-displayed scFv on peptide-pulsed T2A3 cells (FIG. 6)
T1 construct: peptide-pulsed T2A3 cells in flow cytometry
Method: (§1) Cells were stained with 10 μL of precipitated phage per 100 μL of cells, washed and stained with rabbit anti-M13 antibody, then washed and stained with anti-Rabbit-PE antibody. Cells were stained with a live/dead Near-IR dye, washed, and analyzed by an LSRII flow cytometer.
(§2) The pulsed cells were pelleted, washed once in cold stain buffer (PBS containing 0.5% BSA, 2 mM EDTA, and 0.1% sodium azide), and resuspended in 100 μL of stain buffer. Phage staining was performed on ice with 10 uL (approximately 1×10⁹) phage for 1 hour in 100 uL total volume, followed by one 4 mL wash in cold stain buffer. Cells were then stained with 1 uL of rabbit anti-M13 antibody (Pierce, Rockford, Ill.) in 100 uL total volume on ice for 1 hour and washed once with 4 mL of cold stain buffer. Cells were stained with anti-rabbit-PE (Biolegend) on ice for 1 hour in 100 uL total volume, followed by incubation with LIVE/DEAD Fixable Near-IR Dead Cell Stain (Thermo Fisher) for 10 min at room temperature per manufacturer's instructions. Cells were washed once in 4 mL of stain buffer followed by resuspension in 300 uL of stain buffer before analysis. Stained cells were analyzed using an LSRII flow cytometer (Becton Dickinson, Mansfield, Mass.).

[2] = molecular target: KRAS wt(6-14) peptide … with HLA-A2 and b2M on peptide-pulsed T2 cells (human); assay: flow cytometry, phage-displayed scFv on peptide-pulsed T2 cells (FIG. 5)
Method: as §1, §2

[3] = molecular target: T1, KRAS wt(7-16) peptide … with HLA-A3 and …; assay: flow cytometry, phage-displayed scFv on peptide-pulsed T2A3 cells (FIG. 8)
Method: as §1, §2

| binding result [1] | binding result [2] | binding result [3] | Binder |
| --- | --- | --- | --- |
|  |  | no binding | KRAS_G12D_A3_D26 (scFv) scFv: DIQMTQSPSSLSASVGDRVTITCRASQDVNTAVAWYQQKPGKAPKLLIYSASFLYSGVPSRFSGSRSGTDFTLTISSLQPEDFATYYCQQYAYSPLTFGQGTKVEIKRTGGGSGGGGSGGGASEVQLVESGGGLVQPGGSLRLSCAASGFNVSSYGMHWVRQAPGKGLEWVAFIAPRRDYTSYADSVKGRFTISADTSKNTAYLQMNSLRAEDTAVYYCSRKSSYYFDYWGQGTLVTVSS |
| no binding |  |  | KRAS_G12CDV_A3_c19 (scFv) scFv: DIQMTQSPSSLSASVGDRVTITCRASQDVNTAVAWYQQKPGKAPKLLIYSASFLYSGVPSRFSGSRSGTDFTLTISSLQPEDFATYYCQQTYYSPWTFGQGTKVEIKRTGGGSGGGGSGGGASEVQLVESGGGLVQPGGSLRLSCAASGFNIRSYAMHWVRQAPGKGLEWVAQVGPGKGYTYYADSVKGRFTISADTSKNTAYLQMNSLRAEDTAVYYCSRNFQSTSHAFDYWGQGTLVTVSS |
|  |  | no binding | KRAS_G12D_A3_D15 (scFv) scFv: DIQMTQSPSSLSASVGDRVTITCRASQDVNTAVAWYQQKPGKAPKLLIYSASFLYSGVPSRFSGSRSGTDFTLTISSLQPEDFATYYCQQSSASPLTFGQGTKVEIKRTGGGSGGGGSGGGASEVQLVESGGGLVQPGGSLRLSCAASGFNVSSVGMHWVRQAPGKGLEWVAYIYGTSDYTYYADSVKGRFTISADTSKNTAYLQMNSLRAEDTAVYYCSRSSRYSMDYWGQGTLVTVSS |
| no binding |  |  | KRAS_G12CDV_A3_c118 (scFv) scFv: DIQMTQSPSSLSASVGDRVTITCRASQDVNTAVAWYQQKPGKAPKLLIYSASFLYSGVPSRFSGSRSGTDFTLTISSLQPEDFATYYCQQYYYPPITFGQGTKVEIKRTGGGSGGGGSGGGASEVQLVESGGGLVQPGGSLRLSCAASGFNVSHTGMHWVRQAPGKGLEWVAVVGPGKGYTYYADSVKGRFTISADTSKNTAYLQMNSLRAEDTAVYYCSRKTYYAFDYWGQGTLVTVSS |

Continued, binder first:

| Binder | binding result [1] | binding result [2] | binding result [3] |
| --- | --- | --- | --- |
| KRAS_G12CV_A3_c15 (scFv) scFv: DIQMTQSPSSLSASVGDRVTITCRASQDVNTAVAWYQQKPGKAPKLLIYSASFLYSGVPSRFSGSRSGTDFTLTISSLQPEDFATYYCQQSYGSGSPWTFGQGTKVEIKRTGGGSGGGGSGGGASEVQLVESGGGLVQPGGSLRLSCAASGFNIVGGGIHWVRQAPGKGLEWVAKIYPQGDYTYYADSVKGRFTISADTSKNTAYLQMNSLRAEDTAVYYCSRDSSYLAFDYWGQGTLVTVSS | no binding |  |  |
| KRAS_G12V_A2_A1 (scFv) scFv: DIQMTQSPSSLSASVGDRVTITCRASQDVNTAVAWYQQKPGKAPKLLIYSASFLYSGVPSRFSGSRSGTDFTLTISSLQPEDFATYYCQQWYSSPVTFGQGTKVEIKRTGGGSGGGGSGGGASEVQLVESGGGLVQPGGSLRLSCAASGFNINWANMHWVRQAPGKGLEWVAQISPPYDYTNYADSVKGRFTISADTSKNTAYLQMNSLRAEDTAVYYCSRSYSYYFDYWGQGTLVTVSS |  | no binding |  |
| KRAS_G12V_A2_C1 (scFv) scFv: DIQMTQSPSSLSASVGDRVTITCRASQDVNTAVAWYQQKPGKAPKLLIYSASFLYSGVPSRFSGSRSGTDFTLTISSLQPEDFATYYCQQYYSRPVTFGQGTKVEIKRTGGGSGGGGSGGGASEVQLVESGGGLVQPGGSLRLSCAASGFNIYLHDMHWVRQAPGKGLEWVAQIIPAIDYTNYADSVKGRFTISADTSKNTAYLQMNSLRAEDTAVYYCSRRDGYYFDYWGQGTLVTVSS |  | no binding |  |
| KRAS_G12V_A2_A5 (scFv) scFv: DIQMTQSPSSLSASVGDRVTITCRASQDVNTAVAWYQQKPGKAPKLLIYSASFLYSGVPSRFSGSRSGTDFTLTISSLQPEDFATYYCQQWYSSPVTFGQGTKVEIKRTGGGSGGGGSGGGASEVQLVESGGGLVQPGGSLRLSCAASGFNIYWSHMHWVRQAPGKGLEWVAIISSFEGYTYYADSVKGRFTISADTSKNTAYLQMNSLRAEDTAVYYCSRSYSYYMDYWGQGTLVTVSS |  | no binding |  |
| KRAS_G12D_A3_c111 (scFv) scFv: DIQMTQSPSSLSASVGDRVTITCRASQDVNTAVAWYQQKPGKAPKLLIYSASFLYSGVPSRFSGSRSGTDFTLTISSLQPEDFATYYCQQYMYSPVTFGQGTKVEIKRTGGGSGGGGSGGGASEVQLVESGGGLVQPGGSLRLSCAASGFNVSAYWMHWVRQAPGKGLEWVAQIYGGSGYTMYADSVKGRFTISADTSKNTAYLQMNSLRAEDTAVYYCSRTHSYWSAFDYWGQGTLVTVSS |  |  | no binding |
| KRAS_G12D_A3_D12 (scFv) scFv: DIQMTQSPSSLSASVGDRVTITCRASQDVNTAVAWYQQKPGKAPKLLIYSASFLYSGVPSRFSGSRSGTDFTLTISSLQPEDFATYYCQQSSSSPITFGQGTKVEIKRTGGGSGGGGSGGGASEVQLVESGGGLVQPGGSLRLSCAASGFNISGYGMHWVRQAPGKGLEWVAYLYGGSDYTNYADSVKGRFTISADTSKNTAYLQMNSLRAEDTAVYYCSRTVRYAFDYWGQGTLVTVSS |  |  | no binding |
